Laboratory results taken from article PMC11996858, “Cathepsin K cleavage of angiopoietin-2 creates detrimental Tie2 antagonist fragments in sepsis” (The Journal of Clinical Investigation, 2025).

Biological target: the molecule itself
Assay: non-reducing SDS-PAGE with Western blot; recombinant ANGPT2 incubated with CM-Mq^Veh or CM-Mq^LPS (serum-free conditioned media of RAW264.7 cells), then SDS-PAGE under nonreducing conditions against reduced conditions (10% beta-mercaptoethanol) and Western analysis for ANGPT2

B1: recombinant human angiopoietin-2, full length (ligand, UniProt O15123 19-496, looked up)
chain: YNNFRKSMDSIGKKQYQVQHGSCSYTFLLPEMDNCRSSSSPYVSNAVQRDAPLEYDDSVQRLQVLENIMENNTQWLMKLENYIQDNMKKEMVEIQQNAVQNQTAVMIEIGTNLLNQTAEQTRKLTDVEAQVLNQTTRLELQLLEHSLSTNKLEKQILDQTSEINKLQDKNSFLEKKVLAMEDKHIIQLQSIKEEKDQLQVLVSKQNSIIEELEKKIVTATVNNSVLQKQQHDLMETVNNLLTMMSTSNSAKDPTVAKEEQISFRDCAEVFKSGHTTNGIYTLTFPNSTEEIKAYCDMEAGGGGWTIIQRREDGSVDFQRTWKEYKVGFGNPSGEYWLGNEFVSQLTNQQRYVLKIHLKDWEGNEAYSLYEHFYLSSEELNYRIHLKGLTGTAGKISSISQPGNDFSTKDGDNDKCICKCSQMLTGGWWFDACGPSNLNGMYYPQRQNTNKFNGIKWYYWKGSGYSLKATTMMIRPADF
notes: angiopoietin-2 (ANGPT2), human, recombinant full-length protein of about 75 kDa (glycosylated); As a secreted recombinant protein it probably lacks the signal peptide (surmised); also called ANGPT2; full-length ANGPT2; source: bought: R&D Systems
How did the “stoichiometry N” value turn out when B1 was run?
The value was no less than 2.
